This note sets out measurements from patent US20250236682A1.

Assay [1] has as its target HER2 on human cancer cell lines (NCI-N87, BT474, SK-OV-3, SNU-1, SNU-5, SNU-601) (human) (UniProt P04626). Put plainly: flow cytometry Fc load, SNU5 cells.
Assay [2] concerns the target human FcγRI (R&D systems, 1257-FC) (human) (UniProt P12314). Description: BLI, His-FcγRI on HIS1K sensor.
Assay [3] addresses human FcγIIA (R&D systems, 1330-CD) (human) (UniProt P12318). Description: BLI, His-FcγRIIA on HIS1K sensor. On the technique in general: BLI is a label-free optical method that tracks binding on a fibre tip over time.
In assay [4] the target is human HER2 on CT26-HER2 cell line (Clone #2-60) (human) (UniProt P04626). Description: flow cytometry Fc load, CT26-HER2 (#2-60) cells. A general note: Flow cytometry measures light scatter and fluorescence of single cells or particles in a stream.
Assay [5] concerns the target HER2 on human cancer cell lines (NCI-N87, BT474, SK-OV-3, SNU-1, SNU-5, SNU-601) (human) (UniProt P04626). Put plainly: flow cytometry Fc load, SNU601 cells.
Assay [6] shares this target. Description: flow cytometry Fc load, BT474 cells.
For assay [7] the target is unchanged. Put plainly: flow cytometry Fc load, SK-OV-3 cells.
Assay [8] shares this target. Description: flow cytometry Fc load, NCI-N87 cells.
Assay [9] has the same target. Description: flow cytometry Fc load, SNU-1 cells.
The target is the same in assay [10]. Put plainly: flow cytometry Fc load, SNU-5 cells.
The target of assay [11] is human HER2 recombinant protein (R&D systems, 1129-ER) (human) (UniProt P04626). Put plainly: BLI sequential binding on HER2-loaded sensor.

human FcγIIA (R&D systems, 1330-CD) (human), sequence (P12318 36-218 H167R): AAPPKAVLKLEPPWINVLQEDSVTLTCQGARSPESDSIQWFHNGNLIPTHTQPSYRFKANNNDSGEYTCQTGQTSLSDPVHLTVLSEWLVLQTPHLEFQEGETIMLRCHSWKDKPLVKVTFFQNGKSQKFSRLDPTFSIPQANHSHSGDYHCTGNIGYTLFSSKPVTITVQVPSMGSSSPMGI
human FcγRI (R&D systems, 1257-FC) (human), sequence (P12314 16-288 limits assumed): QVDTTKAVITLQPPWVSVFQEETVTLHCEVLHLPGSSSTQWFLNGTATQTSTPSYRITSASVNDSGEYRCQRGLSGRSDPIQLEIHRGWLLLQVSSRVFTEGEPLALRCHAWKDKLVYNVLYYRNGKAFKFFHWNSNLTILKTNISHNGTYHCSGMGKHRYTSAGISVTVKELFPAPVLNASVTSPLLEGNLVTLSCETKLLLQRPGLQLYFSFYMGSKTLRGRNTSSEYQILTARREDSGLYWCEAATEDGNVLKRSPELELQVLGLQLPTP

The Kd is the free concentration of one partner at which half of the binding sites on the other are occupied at equilibrium, for simple one-to-one binding. Read a low Kd as tighter binding. With “human IgG1 (Bio X cell, BE0297) (antibody)”, the GMFI was 101 in [1], 150 in [4] and 173 in assay [5]. Also, the Kd was 2.46 nM in [2] and 310 nM in assay [3].
pertuzumab (antibody): the Kd in assay [3] turned out to be 359 nM.
trastuzumab + pertuzumab (combination): the GMFI came out at 38700 in assay [6]; 6450 in assay [7]; 137000 in [8]; 2690 in assay [9]; 1390 in assay [10]. Moreover, the binding signal (nm shift, value at 4140 s minus value at 1260 s) in assay [11] turned out to be 0.923 nm.
